Assays:
Assay in all cases: pull-down binding Z-score (relative to library population); higher = stronger binding
[1] = tested on: TO-3-N3 (biotin conjugate); details: RNA library: Library-2
Summary of the method: (§1)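 Biotin-conjugated small molecule (100 pmol) on streptavidin beads was incubated with 1 μg of heat-folded Cy5- or Cy3-end-labelled RNA library in phosphate/NaCl/KCl buffer at 25 °C for 60 min. Following three washes, RNA was eluted with hot SDS and hybridised at 55.5 °C for 20 h to a DNA barcode microarray. The binding value is a Z-score computed from the library mean and standard deviation, after subtraction of beads without compound and averaging of barcoded replicate probes with the highest and lowest excluded.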

[2] = tested on: G-clamp-N3 (biotin conjugate); details: RNA library: Library-1 (pre-miRNA loops + repeats)
Summary of the method: as §1

[3] = tested on: TO-3-N3-2 (biotin conjugate); details: RNA library: Library-2
Summary of the method: as §1

TO-N3 (biotin conjugate) = details: RNA library: Library-2
Summary of the method: as §1

[4] = tested on: TO-N3-2 (biotin conjugate); details: RNA library: Library-2
Summary of the method: as §1

Sequence | pull-down binding Z-score [1] | pull-down binding Z-score [2] | pull-down binding Z-score [3] | pull-down binding Z-score (TO-N3 (biotin conjugate)) | pull-down binding Z-score [4]
UGUUCGUUUUGCUCAUGUCGAAUC [hsa-mir-487b] | -0.794 | -0.817 | -0.391 | -0.701 | -0.133
GGAGGGUGAGCUUUCUGAAAACCCCUCC [hsa-mir-188] | 0.345 | 0.536 | 0.358 | 0.328 | -0.0757
CUCGUCUCUACAAAAAAUUGAGACAGG [hsa-mir-4512] | 0.00896 | -0.338 | -0.15 | -0.152 | -0.632
CAUGCAGGCCACACUGACGGUAACGUUGCAGG [hsa-mir-431] | 0.647 | 1.54 | 0.263 | 1.08 | 1.01
GACACUUUCACUAUAUAUAGUGGC [hsa-mir-3156-3] | -0.049 | -0.25 | -0.0836 | -0.354 | -0.533
GGUUCUCAGUCAGAACC [hsa-mir-6813] | -0.0211 | 0.755 | -0.346 | -0.372 | -1.21
CUGUGGUGGCUGCUCAUGCACCACGG [hsa-mir-105-1] | -0.868 | 1.44 | -0.574 | -1.05 | -0.558
UUGGCGUAGUGAAAUAUAUAUUAAACACCAA [hsa-mir-16-2] | 0.128 | -0.484 | 0.371 | 0.0274 | 0.0267
UCCAGGAUCUGGGUUUUGAGGUCUUGG [hsa-mir-4309] | 0.835 | 0.525 | 0.267 | 0.673 | 0.345
AGGGACCCCCGGAGUCUGUCACGGUCUCA [hsa-mir-6784] | -0.0169 | -0.402 | 0.215 | 0.353 | 0.955
GGACAGGGAUUCUUUUCACUGUU [hsa-mir-599] | -0.0902 | 1.08 | 0.0302 | 0.141 | 0.0602
GUCUGGCAUUGUCUGAUAUAC [hsa-mir-1294] | 1.12 | 0.671 | 0.316 | 1.2 | 0.408
AGGAGGGUCC [hsa-mir-3141] | 0.419 | -0.0548 | 0.356 | 0.766 | 1.02
UUUUGCUUGUGUCUCUCCGCUCUGAGCAAUC [hsa-mir-96] | 0.441 | -0.253 | -0.0864 | 0.528 | 0.411
AGCUGUGUUUUCUGACUCAGUCAUAAU [hsa-mir-365b] | -0.26 | -0.674 | -0.263 | -0.26 | -0.505
CUGCUGCUGCUGCUGCUGCUGCUGCUGCUGCUGCUGCUGCUGCUGCUG [r(CUG)16] | -0.0148 | 2.5 | -0.215 | 0.778 | 1.37
CACAAGACUAGGCUUCCCUGUG [hsa-mir-3152] | 0.212 | -0.785 | 0.0303 | 0.13 | -0.0548
AAGCUGUGUGUGUCCAGC [hsa-mir-4732] | 0.132 | -0.258 | -0.101 | 0.33 | 0.52
UUUGCUGUUGAACGUAGUGGUAA [hsa-mir-548ar] | 0.181 | -0.679 | 0.0962 | 0.407 | 0.387

Sequence | pull-down binding Z-score [1] | pull-down binding Z-score [2] | pull-down binding Z-score [3] | pull-down binding Z-score (TO-N3 (biotin conjugate)) | pull-down binding Z-score [4]
CCAGUGGUUUUCCUUGACUGUG [hsa-mir-298] | -0.421 | 1.54 | -0.472 | -0.416 | 0.0607
UUGUUGUUAUUACU [hsa-mir-378d-1] | -0.148 | -0.945 | -0.259 | -0.378 | -0.877
GCUGCUGGUGCUCAUCUCAGC [hsa-mir-6877] | 0.71 | -0.152 | -0.0239 | 0.825 | 0.602
GGAUAAGAAUCAGUCAC [hsa-mir-217] | -0.334 | -0.462 | 0.259 | -0.415 | -0.147
UAAGUGUUAUAGCACUUA [hsa-mir-374a] | -0.901 | -0.753 | -0.541 | -1.38 | -1.79
AUCUGAGGUGACUGGCACAGAAGACUCAGG [hsa-mir-6735] | 0.238 | -0.394 | 0.101 | 0.673 | 0.797
CACUCCCGUGCUUGUCCGAGGAGGGAGG [hsa-mir-149] | 1.78 | 1.29 | 0.731 | 2.63 | 2.78
UUACUGCAGGGAUCUUAGCAGUAC [hsa-mir-583] | 0.295 | -0.752 | 0.0351 | 0.303 | 0.435
GGCCGUUUGAGAUGUCC [hsa-mir-3674] | -0.181 | -0.962 | -0.132 | -0.259 | 0.0919
GAUGAAGAUUAAUCCCUAAUCCCCAACA [hsa-mir-6757] | -0.283 | -1.77 | -0.0684 | 0.0739 | 0.739
GUGGCUAAUCAGCUGAUGGUGCCAC [hsa-mir-4715] | -0.0716 | -0.109 | -0.511 | -0.26 | -0.545
GGCGCUGGGACCCCACUAGGGUGGCGCC [hsa-mir-4488] | 1.33 | 1.6 | 0.254 | 1.25 | 0.687
UGGGCCAAG [hsa-mir-3620] | 0.746 | -0.636 | 0.193 | 0.825 | 0.487
AUUCUGAUGAUCACCUAGCCAGAAU [hsa-mir-5583-2] | 1.52 | -0.301 | 0.566 | 1.45 | 0.317
CUUCUUACUGCACCAGUGAAG [hsa-mir-5683] | -0.186 | -1.53 | -0.268 | -0.0796 | 0.131
CUCUUGAUAGCAGACAU [hsa-mir-4775] | -0.326 | -0.839 | 0.14 | -0.14 | 0.291
AGCACUUUCUGUUUUGUGAAAGAAAAGAAAGUGCU [hsa-mir-516b-1] | -0.893 | -0.472 | -0.64 | -1.32 | -1.2
CGAGUCUGAGCCUUUAAAAGCCACUCU [hsa-mir-1287] | -0.321 | -1.4 | -0.012 | 0.0262 | 0.586
GGUUCUGGGGUGUAGACGCUGCUGGCCAGCC [hsa-mir-4707] | 0.287 | 1.08 | 0.282 | 0.587 | 0.971

— the supplement of paper PMC11865577
